Experimental data reported in the DeepSol protein solubility set.

Assay: soluble on expression in E. coli; label from the status in PepcDB or PDB records

| Sequence | soluble on expression in E. coli |
| --- | --- |
| AHHHHHHGSGRDKKNTALLDIARDIGGDEAVEVVKALEKKGEATDEELAELTGVRVNTVRKILYALYDAKLATFRRVRDDETGWYYYYWRIDTKRLPEVIRTRKLQELEKLKQMLQEETSETYYHCGTPGHPKLTFDEAFEYGFQCPICGEILYEYDNSKIIEELKKRIEELEIELGLRSPPKEEKPKKATRRKKSRSGKKKK | not soluble |
| MAHHHHHHMAASLSSSPVRHPIVDNAAVPAASHRIPPPLNGFAFLEHRRSALSHDTFIARDVRQQQHPEQQDNDPAKVIIRVYALEYLRRDEECRFALERECLTARLVVHPHLLPLGAPFASKTDLFVVEKYCAGGDLYELMVSLAKEDPIASEMGAAKGEAPPRSSTGLPTNTVKRFMRELLSAVQYLHRTCGLVHRNIKLETLFIDEEQHLRLGGFGLCAVLPPPSVVTGDREGALDAPDAPEDTASSSHEPLRLCCGSKHYAAPELVQGHPYQGEGVDAWACGVVLFALLTSCFPFDSDDGDEALFRLLCGDVEAHLAQHPAMAAIEDPQACDLVRNLLRPNPNARYTVSEALEHPYLWVA | not soluble |
| MSNTQKKNVPELRFPGFEGEWEEKKLGNLTTKIGSGKTPKGGSENYTNKGIPFLRSQNIRNGKLNLNDLVYISKDIDDEMKNSRTYYGDVLLNITGASIGRTAINSIVETHANLNQHVCIIRLKKEYYYNFFGQYLLSRKGKRKIFLAQSGGSREGLNFKEIANLKIFTPTIFEEQQKIGKFFSKLDRQIELEEQKLELLQQQKKGYMQKIFTQELRFKDENGEEYPEWENKFIKDIFIFENNRRKPITSSLREKGLYPYYGATGIIDYVKDYLFNNEERLLIGEDGAKWGQFETSSFIANGQYWVNNHAHVVKSNDHNLFFMNYYLNFKELRAFVTGNAPAKLTHANLCNINLKIPCLTEQDKVSALLKSIDNKMNNQMNRIELLKERKKGLLQKMFI | not soluble |
| MAEVITVKQTNMENIYECEFNDGSFRLCTRNLVPNFNVYGERLIKYEGVEYREWNAFRSKLAGAILKGLKTNPIRKGTKVLYLGAASGTTISHVSDIIELNGKAYGVEFSPRVVRELLLVAQRRPNIFPLLADARFPQSYKSVVENVDVLYVDIAQPDQTDIAIYNAKFFLKVNGDMLLVIKARSIDVTKDPKEIYKTEVEKLENSNFETIQIINLDPYDKDHAIVLSKYKG | soluble |
| MGSDKIHHHHHHMSLPAMDAGIYLEETAPRALIEHNNILDNSVGVYLHGSADAMVRENKIVGDATLRVNERGNGVTVWNAPGAQVVGNDISKGRDGIFSNTSTHNTYKNNRFSDLRFAVHYMYTNDSEISGNISVGNNMGYVLMFSERLKVFDNIAVGSRDQGIMLNYVNYSDIHDNIINKAGKCVFAYNANYDKLSANHFENCQIGIHFTAAIEGTSLHDNSFINNESQVKYVSTRFLDWSEGGHGNYWSDNSAFDLNGDGFGDSAYRPNGIIDQIIWRAPVSRLLMNSPAISIVKWAQAQFPAVLPGGVVDSKPLMKPYAPKIQTRYQAMKDGLLKKVETRQLEWGRAENGSLN | not soluble |
| QKNPDSYNGAVRENYTWSQDYTDLEVRVPVPKHVVKGKQVSVALSSSSIRVAMLEENGERVLMEGKLTHKINTESSLWSLEPGKCVLVNLSKVGEYWWNAILEGEEPIDID | soluble |
| MTPDELARLTGYSRQTINKWVRKEGWTTSPKPGVQGGKARLVHVNEQVREYIRNAERPEGQGEAPALSGDAPLEVLLVTLAKEMTPVEQKQFTSLLLREGIIGLLQRLGIRDSK | not soluble |
| MRRTLVVPDVLLLGTLLAGLLLLSGCEGDYRPRAVGPIGEITVVMDSSHWTGPSGEALRANVTPWVETLPVSERSFQLRHLELTDERTYERVQDLKNVIIAAPLSDSTNETSFLRRRLSDEAEQAILDGQTAVVPKPNLWRRSQRIYYVAAASPDALAETFQSQGTQIRDTFTEATLQRMDRNMYEDDRRSALEDTLMQRHGFAVNMQSDFQIAVDTTTGSEGFVWLRRLLAQTRREFFVYYVEDVSPDQITPEWIYNTRDSLTRRHLRGNVRGFAKIDYRRPLKTEQRSFLDRYAYDSRGLWYMVAPLGGGNELRPVGGGGPFVNYTFYDQATDRVYMLDGSIFAPDNDKIDLLRQMEVMARTFRTAEGSRSPDASPTAAKLEHHHHHH | not soluble |
| MDVEVKNKANRRHVGHNLQKIRVYFGMKQEALAADLGVNQQVISKIEKQEEIEEGLLNQIASVLGISAEVIKDFDVEKAIYNINNIRDNTFEQGATSIAQQFNPLDKIVELYERLLQSEREKIELLKKR | not soluble |
| MSNAMPWVRFYLYDWISGTNGMTSEQRGVYITLLVCMYEKKEPLKTDFETLARVCHCSQKKFAAIVEYLMRNDKLIEIDGRLWNLDVEEELNNLSEELDNFTFNNNEEKEVKYVN | not soluble |
| MSLEFKGELTFEQELALSDMTSKENGLLHAETGFGKTVLGAALISERKTKTIILVHNKQLLDQWLDRLNCFLTFEEEEAIRYTASGREKVIGYVGQYGGTKKWLSKLVDVVMIQSLFKLENSQSLLDEYEMMIVDECHHVSALMFEKVVAQFRGKYLYGLTATPERKNGHEPIVFQRIGEILHTADKRETDFKRQLQLRFTSFGHLEIEKTKASNFIQLSDWIATDSVRNQMILKDILAQVAEGRNILVLVNRIQQIDVFEKLLKEKEVDDCYIISGKTKVRERTSLLETLEQLDKGFVLLSTGKYIGEGFDLPQLDTLILAAPFSWKNNLIQYAGRIHRNYKDKSLVRIFDYVDIHVPYLEKMFQKRQVAYRKMDYRVIEGEGHHHHHH | not soluble |
| MGKNFDEAALLKSLEGVPDAEKVQKLIKKLAESEKQNAELKIKVLDYDKVVKVKDLTEKKLERNNQILLRTEEAKSKLEELCRGLQKANHQTREEACAKMKKLEVERGLAVEQLKVTLKDIEKTMAEGRSKSDSLAEDNKKLSEKFSEIGHQYEEKMKVIDQQIQKKEKYWEEYGKTKDLEIKLLTAKLESASIQVKKSGMEKDELAKIMLEETARVGGALKTEKALREQVQEYSAKYSELTSCLSKSNEAFDKFKDEISRVNKKCMQVEKEGLSYKKKSDEANKKVLVLTMTNQEYAEKIATSDKKIQMLENLCRALRKGEQEPVTTAETTEAN | not soluble |
| MGSDKIHHHHHHMFSIAIQQQQYKTYILSDETTGSQLEVVPERGGIITRWRVKGEEILYLDAERFTHPDLSVRGGVPILFPICGNLPDNSYTLNGQQYTLKQHGFARDLPWEVVEQTTKDTAALTLVLRSNEQTKAVYPFDFQLVFTYVLQGNTLEIRQEYQNLSSTQLPFSAGFHPYFLTGDKNQLEFDIPSQEYQDQQTKEVHPFNGNFDFNRDEMDFAFGHITSQSASVIDRNRQFKLTLDADDIFSMLVFWTLKGKEFYCLEPWSAPRNSLNTGEKLTVLEPGTSYKASVRLSASFF | not soluble |
| MGSSHHHHHHSSGLVPRGSPTVTPTVNRENKPTCYPKAEISRLSASQIRNLNPVFGGSGPALTGLRNLGNTCYMNSILQCLCNAPHLADYFNRNCYQDDINRSNLLGHKGEVAEEFGIIMKALWTGQYRYISPKDFKITIGKINDQFAGYSQQDSQELLLFLMDGLHEDLNKADNRKRYKEENNDHLDDFKAAEHAWQKHKQLNESIIVALFQGQFKSTVQCLTCHKKSRTFEAFMYLSLPLASTSKCTLQDCLRLFSKEEKLTDNNRFYCSHCRARRDSLKKIEIWKLPPVLLVHLKRFSYDGRWKQKLQTSVDFPLENLDLSQYVIGPKNNLKKYNLFSVSNHYGGLDGGHYTAYCKNAARQRWFKFDDHEVSDISVSSVKSSAAYILFYTSLG | soluble |
| TKVKSIPLLIVPPWINKYYILDLSPHNSLIRWLVEQGITVFIISWVNPDETYANKSFYDYLNEGPREAIAVIQKQLRVKQVNTLGFCIGGTLLASLLAYNKATKDHSIRSATFLAAMIDFSDPGDIAVFIDEQQINKLEEEMKSKGYLAGKFMASSFNSLRANDLIWSFFIKNYLRGKSPVPFDILYWNADSTNMPATMHSQYLRWMYLHNNLIKPGKIRLNHIPIDVTNIDIPTFFLSTQKDHIAPWKTTYKGFELMKGPKRFVLGGSGHI | not soluble |
| SLLPFKENRGLIFLDPPFEVKNEFQKLLEALKKIKLRVLNNTVLIWYPIKDLSLVCDVYHNYKNIGFKETMIIEYELLNSDKNMVKCGLMLINPPNIRGELEKLTEYLSGTLNLKFTYIYL | not soluble |
